B1: WASH complex subunit 3 (Homo sapiens), Q9Y3C0 (parent)
chain: MDEDGLPLMGSGIDLTKVPAIQQKRTVAFLNQFVVHTVQFLNRFSTVCEEKLADLSLRIQQIETTLNILDAKLSSIPGLDDVTVEVSPLNVTSVTNGAHPEATSEQPQQNSTQDSGLQESEVSAENILTVAKDPRYARYLKMVQVGVPVMAIRNKMISEGLDPDLLERPDAPVPDGESEKTVEESSDSESSFSD
partner: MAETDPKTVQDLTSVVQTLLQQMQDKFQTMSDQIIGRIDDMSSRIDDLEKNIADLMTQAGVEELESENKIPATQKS
B2: Keratin, type I cytoskeletal 20 (Homo sapiens), P35900 (parent)
chain: MDFSRRSFHRSLSSSLQAPVVSTVGMQRLGTTPSVYGGAGGRGIRISNSRHTVNYGSDLTGGGDLFVGNEKMAMQNLNDRLASYLEKVRTLEQSNSKLEVQIKQWYETNAPRAGRDYSAYYRQIEELRSQIKDAQLQNARCVLQIDNAKLAAEDFRLKYETERGIRLTVEADLQGLNKVFDDLTLHKTDLEIQIEELNKDLALLKKEHQEEVDGLHKHLGNTVNVEVDAAPGLNLGVIMNEMRQKYEVMAQKNLQEAKEQFERQTAVLQQQVTVNTEELKGTEVQLTELRRTSQSLEIELQSHLSMKESLEHTLEETKARYSSQLANLQSLLSSLEAQLMQIRSNMERQNNEYHILLDIKTRLEQEIATYRRLLEGEDVKTTEYQLSTLEERDIKKTRKIKTVVQEVVDGKVVSSEVKEVEENI
partner: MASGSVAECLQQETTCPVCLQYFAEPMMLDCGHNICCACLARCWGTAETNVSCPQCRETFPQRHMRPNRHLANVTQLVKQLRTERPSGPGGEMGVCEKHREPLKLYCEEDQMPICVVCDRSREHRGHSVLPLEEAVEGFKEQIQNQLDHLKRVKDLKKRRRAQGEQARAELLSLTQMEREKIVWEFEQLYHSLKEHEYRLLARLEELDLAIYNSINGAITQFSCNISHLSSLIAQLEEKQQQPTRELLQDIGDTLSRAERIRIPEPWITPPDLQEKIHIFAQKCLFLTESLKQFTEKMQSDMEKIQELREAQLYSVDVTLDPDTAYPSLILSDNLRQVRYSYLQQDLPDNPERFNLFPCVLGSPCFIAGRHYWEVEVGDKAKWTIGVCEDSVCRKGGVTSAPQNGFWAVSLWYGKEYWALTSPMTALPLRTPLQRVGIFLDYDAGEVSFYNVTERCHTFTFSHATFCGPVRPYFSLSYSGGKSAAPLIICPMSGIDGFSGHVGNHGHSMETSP
B3: Transcription factor 12 (Homo sapiens), Q99081 (parent)
chain: MNPQQQRMAAIGTDKELSDLLDFSAMFSPPVNSGKTRPTTLGSSQFSGSGIDERGGTTSWGTSGQPSPSYDSSRGFTDSPHYSDHLNDSRLGAHEGLSPTPFMNSNLMGKTSERGSFSLYSRDTGLPGCQSSLLRQDLGLGSPAQLSSSGKPGTAYYSFSATSSRRRPLHDSAALDPLQAKKVRKVPPGLPSSVYAPSPNSDDFNRESPSYPSPKPPTSMFASTFFMQDGTHNSSDLWSSSNGMSQPGFGGILGTSTSHMSQSSSYGNLHSHDRLSYPPHSVSPTDINTSLPPMSSFHRGSTSSSPYVAASHTPPINGSDSILGTRGNAAGSSQTGDALGKALASIYSPDHTSSSFPSNPSTPVGSPSPLTGTSQWPRPGGQAPSSPSYENSLHSLQSRMEDRLDRLDDAIHVLRNHAVGPSTSLPAGHSDIHSLLGPSHNAPIGSLNSNYGGSSLVASSRSASMVGTHREDSVSLNGNHSVLSSTVTTSSTDLNHKTQENYRGGLQSQSGTVVTTEIKTENKEKDENLHEPPSSDDMKSDDESSQKDIKVSSRGRTSSTNEDEDLNPEQKIEREKERRMANNARERLRVRDINEAFKELGRMCQLHLKSEKPQTKLLILHQAVAVILSLEQQVRERNLNPKAACLKRREEEKVSAVSAEPPTTLPGTHPGLSETTNPMGHM
B4: Keratin-associated protein 5-9 (Homo sapiens), P26371 (parent)
chain: MGCCGCSGGCGSSCGGCDSSCGSCGSGCRGCGPSCCAPVYCCKPVCCCVPACSCSSCGKRGCGSCGGSKGGCGSCGCSQCSCCKPCCCSSGCGSSCCQCSCCKPYCSQCSCCKPCCSSSGRGSSCCQSSCCKPCCSSSGCGSSCCQSSCCKPCCSQSRCCVPVCYQCKI
partner: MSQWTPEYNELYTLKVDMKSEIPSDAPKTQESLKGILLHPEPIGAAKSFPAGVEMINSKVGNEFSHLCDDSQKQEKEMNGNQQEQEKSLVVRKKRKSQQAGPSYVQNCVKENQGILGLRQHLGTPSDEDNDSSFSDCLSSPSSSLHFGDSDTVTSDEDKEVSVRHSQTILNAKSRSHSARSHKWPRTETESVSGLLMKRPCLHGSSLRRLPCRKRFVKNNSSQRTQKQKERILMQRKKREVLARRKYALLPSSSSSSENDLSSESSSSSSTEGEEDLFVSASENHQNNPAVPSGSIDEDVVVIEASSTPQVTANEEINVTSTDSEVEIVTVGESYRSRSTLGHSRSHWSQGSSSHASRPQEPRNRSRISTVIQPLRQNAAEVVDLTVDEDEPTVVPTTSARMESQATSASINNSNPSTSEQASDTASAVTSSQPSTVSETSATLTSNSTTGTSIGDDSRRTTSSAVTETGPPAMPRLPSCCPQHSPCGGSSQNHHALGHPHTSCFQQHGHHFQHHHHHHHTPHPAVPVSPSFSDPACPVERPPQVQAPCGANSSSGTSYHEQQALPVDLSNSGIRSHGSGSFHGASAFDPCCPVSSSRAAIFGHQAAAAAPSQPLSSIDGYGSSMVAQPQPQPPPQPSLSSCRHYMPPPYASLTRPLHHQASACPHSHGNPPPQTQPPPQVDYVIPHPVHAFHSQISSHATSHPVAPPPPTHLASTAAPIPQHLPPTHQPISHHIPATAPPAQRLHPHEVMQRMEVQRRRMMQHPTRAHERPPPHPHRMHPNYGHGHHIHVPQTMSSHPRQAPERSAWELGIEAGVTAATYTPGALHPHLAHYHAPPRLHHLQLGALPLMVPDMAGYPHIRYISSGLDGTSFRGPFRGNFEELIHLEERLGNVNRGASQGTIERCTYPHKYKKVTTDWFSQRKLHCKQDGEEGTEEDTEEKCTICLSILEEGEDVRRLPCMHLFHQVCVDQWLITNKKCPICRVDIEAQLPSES
B5: Paraneoplastic antigen Ma2 (Homo sapiens), Q9UL42 (parent)
chain: MALALLEDWCRIMSVDEQKSLMVTGIPADFEEAEIQEVLQETLKSLGRYRLLGKIFRKQENANAVLLELLEDTDVSAIPSEVQGKGGVWKVIFKTPNQDTEFLERLNLFLEKEGQTVSGMFRALGQEGVSPATVPCISPELLAHLLGQAMAHAPQPLLPMRYRKLRVFSGSAVPAPEEESFEVWLEQATEIVKEWPVTEAEKKRWLAESLRGPALDLMHIVQADNPSISVEECLEAFKQVFGSLESRRTAQVRYLKTYQEEGEKVSAYVLRLETLLRRAVEKRAIPRRIADQVRLEQVMAGATLNQMLWCRLRELKDQGPPPSFLELMKVIREEEEEEASFENESIEEPEERDGYGRWNHEGDD
partner: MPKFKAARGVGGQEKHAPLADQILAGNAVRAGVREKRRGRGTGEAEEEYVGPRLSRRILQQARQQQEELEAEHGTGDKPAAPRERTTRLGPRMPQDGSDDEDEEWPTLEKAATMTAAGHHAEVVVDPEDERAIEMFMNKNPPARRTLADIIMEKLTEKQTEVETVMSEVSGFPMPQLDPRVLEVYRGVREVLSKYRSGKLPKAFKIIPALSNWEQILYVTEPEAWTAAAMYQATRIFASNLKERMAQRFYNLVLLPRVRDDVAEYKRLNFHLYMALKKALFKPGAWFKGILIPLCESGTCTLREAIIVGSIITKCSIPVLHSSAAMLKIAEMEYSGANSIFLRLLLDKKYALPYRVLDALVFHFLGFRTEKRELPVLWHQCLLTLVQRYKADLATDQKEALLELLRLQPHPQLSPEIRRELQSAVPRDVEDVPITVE
B6: Breast cancer metastasis-suppressor 1 (Homo sapiens), Q9HCU9 (parent)
chain: MPVQPPSKDTEEMEAEGDSAAEMNGEEEESEEERSGSQTESEEESSEMDDEDYERRRSECVSEMLDLEKQFSELKEKLFRERLSQLRLRLEEVGAERAPEYTEPLGGLQRSLKIRIQVAGIYKGFCLDVIRNKYECELQGAKQHLESEKLLLYDTLQGELQERIQRLEEDRQSLDLSSEWWDDKLHARGSSRSWDSLPPSKRKKAPLVSGPYIVYMLQEIDILEDWTAIKKARAAVSPQKRKSDGP
B7: Coiled-coil domain-containing protein 92 (Homo sapiens), Q53HC0 (parent)
chain: MTSPHFSSYDEGPLDVSMAATNLENQLHSAQKNLLFLQREHASTLKGLHSEIRRLQQHCTDLTYELTVKSSEQTGDGTSKSSELKKRCEELEAQLKVKENENAELLKELEQKNAMITVLENTIKEREKKYLEELKAKSHKLTLLSSELEQRASTIAYLTSQLHAAKKKLMSSSGTSDASPSGSPVLASYKPAPPKDKLPETPRRRMKKSLSAPLHPEFEEVYRFGAESRKLLLREPVDAMPDPTPFLLARESAEVHLIKERPLVIPPIASDRSGEQHSPAREKPHKAHVGVAHRIHHATPPQAQPEVKTLAVDQVNGGKVVRKHSGTDRTV
partner: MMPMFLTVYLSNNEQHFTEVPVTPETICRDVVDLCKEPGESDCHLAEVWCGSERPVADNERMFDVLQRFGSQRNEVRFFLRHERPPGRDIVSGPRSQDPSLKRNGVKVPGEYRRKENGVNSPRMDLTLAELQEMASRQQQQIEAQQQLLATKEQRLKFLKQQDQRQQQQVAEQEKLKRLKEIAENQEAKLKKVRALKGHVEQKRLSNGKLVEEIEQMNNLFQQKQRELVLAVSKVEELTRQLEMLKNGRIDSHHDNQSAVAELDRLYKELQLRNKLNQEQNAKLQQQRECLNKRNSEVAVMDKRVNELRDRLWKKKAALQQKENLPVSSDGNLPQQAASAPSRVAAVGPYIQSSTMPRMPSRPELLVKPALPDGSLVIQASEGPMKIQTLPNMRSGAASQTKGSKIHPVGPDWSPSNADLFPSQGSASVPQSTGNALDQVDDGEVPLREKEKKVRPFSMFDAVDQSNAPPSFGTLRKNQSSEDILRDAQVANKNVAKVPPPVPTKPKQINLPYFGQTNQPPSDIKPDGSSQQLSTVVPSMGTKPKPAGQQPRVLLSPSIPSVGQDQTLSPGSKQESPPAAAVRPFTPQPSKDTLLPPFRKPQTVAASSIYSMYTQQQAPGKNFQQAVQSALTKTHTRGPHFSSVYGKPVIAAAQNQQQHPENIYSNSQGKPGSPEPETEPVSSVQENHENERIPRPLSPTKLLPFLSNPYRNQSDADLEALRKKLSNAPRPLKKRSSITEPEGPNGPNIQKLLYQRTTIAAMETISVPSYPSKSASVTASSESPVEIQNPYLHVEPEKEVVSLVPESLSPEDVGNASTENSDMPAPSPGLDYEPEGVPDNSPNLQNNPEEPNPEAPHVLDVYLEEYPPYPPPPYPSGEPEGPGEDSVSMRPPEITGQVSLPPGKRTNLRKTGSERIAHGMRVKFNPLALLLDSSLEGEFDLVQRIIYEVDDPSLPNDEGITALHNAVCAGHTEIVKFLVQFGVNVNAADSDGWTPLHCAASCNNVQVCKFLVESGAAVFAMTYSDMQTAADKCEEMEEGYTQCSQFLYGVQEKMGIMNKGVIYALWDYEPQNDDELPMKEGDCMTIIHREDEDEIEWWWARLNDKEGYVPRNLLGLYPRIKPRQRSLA
B8: "Peptide-N(4)-(N-acetyl-beta-glucosaminyl)asparagine amidase" (Homo sapiens), Q96IV0 (parent)
chain: MAAAALGSSSGSASPAVAELCQNTPETFLEASKLLLTYADNILRNPNDEKYRSIRIGNTAFSTRLLPVRGAVECLFEMGFEEGETHLIFPKKASVEQLQKIRDLIAIERSSRLDGSNKSHKVKSSQQPAASTQLPTTPSSNPSGLNQHTRNRQGQSSDPPSASTVAADSAILEVLQSNIQHVLVYENPALQEKALACIPVQELKRKSQEKLSRARKLDKGINISDEDFLLLELLHWFKEEFFHWVNNVLCSKCGGQTRSRDRSLLPSDDELKWGAKEVEDHYCDACQFSNRFPRYNNPEKLLETRCGRCGEWANCFTLCCRAVGFEARYVWDYTDHVWTEVYSPSQQRWLHCDACEDVCDKPLLYEIGWGKKLSYVIAFSKDEVVDVTWRYSCKHEEVIARRTKVKEALLRDTINGLNKQRQLFLSENRRKELLQRIIVELVEFISPKTPKPGELGGRISGSVAWRVARGEMGLQRKETLFIPCENEKISKQLHLCYNIVKDRYVRVSNNNQTISGWENGVWKMESIFRKVETDWHMVYLARKEGSSFAYISWKFECGSVGLKVDSISIRTSSQTFQTGTVEWKLRSDTAQVELTGDNSLHSYADFSGATEVILEAELSRGDGDVAWQHTQLFRQSLNDHEENCLEIIIKFSDL

Variants of: B1
Conditions: with hsbp1_human HSBP1, O75506

Variant | effect of a mutation on the interaction
F44L | with no effect

Variants of: B2
Conditions: with tri27_human TRIM27, P14373

Variant | effect of a mutation on the interaction
S309Y | with no effect
S129N | with no effect

Variants of: B3
Conditions: with psa1_human PSMA1, P25786
Chain of psa1_human PSMA1, P25786 (P25786 whole entry): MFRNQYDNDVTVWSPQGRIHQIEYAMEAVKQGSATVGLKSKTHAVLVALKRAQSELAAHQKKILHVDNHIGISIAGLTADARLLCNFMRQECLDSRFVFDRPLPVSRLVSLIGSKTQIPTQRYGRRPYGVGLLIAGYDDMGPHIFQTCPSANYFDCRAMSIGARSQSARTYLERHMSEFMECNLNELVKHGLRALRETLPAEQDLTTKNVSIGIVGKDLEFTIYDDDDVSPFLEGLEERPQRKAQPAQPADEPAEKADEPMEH

Variant | effect of a mutation on the interaction
A458V | with no effect
I11M | with no effect
G300S | with no effect
N479S | with no effect
D565V | with no effect
L483R | with no effect

Variants of: B3
Conditions: with cdn2c_human CDKN2C

Variant | effect of a mutation on the interaction
A458V | with no effect
I11M | with no effect
G300S | with no effect
N479S | with no effect
D565V | with no effect
L483R | with no effect

Variants of: B4
Conditions: with rn111_human RNF111, Q6ZNA4

Variant | effect of a mutation on the interaction
Y40C | with no effect

Variants of: B5
Conditions: with byst_human BYSL

Variant | effect of a mutation on the interaction
E186K | with no effect

Variants of: B6
Conditions: with cep70_human CEP70, Q8NHQ1
Chain of cep70_human CEP70, Q8NHQ1 (Q8NHQ1 whole entry): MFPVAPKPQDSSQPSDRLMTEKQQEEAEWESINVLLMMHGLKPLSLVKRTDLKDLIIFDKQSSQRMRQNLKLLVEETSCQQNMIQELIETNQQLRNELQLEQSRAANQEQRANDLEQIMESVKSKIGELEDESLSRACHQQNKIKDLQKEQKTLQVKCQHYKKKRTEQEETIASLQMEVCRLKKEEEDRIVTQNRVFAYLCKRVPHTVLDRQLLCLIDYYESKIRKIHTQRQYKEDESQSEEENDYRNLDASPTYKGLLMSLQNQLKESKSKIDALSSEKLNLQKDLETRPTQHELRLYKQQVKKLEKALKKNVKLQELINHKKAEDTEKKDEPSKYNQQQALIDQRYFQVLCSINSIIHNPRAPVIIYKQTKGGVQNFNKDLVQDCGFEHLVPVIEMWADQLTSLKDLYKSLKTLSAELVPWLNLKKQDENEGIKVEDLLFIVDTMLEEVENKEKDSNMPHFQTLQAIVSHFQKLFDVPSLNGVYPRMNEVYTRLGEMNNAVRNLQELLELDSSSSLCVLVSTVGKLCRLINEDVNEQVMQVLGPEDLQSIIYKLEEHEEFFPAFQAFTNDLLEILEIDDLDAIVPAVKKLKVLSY

Variant | effect of a mutation on the interaction
S7G | with no effect

Variants of: B7
Conditions: with aspp2_human TP53BP2, Q13625

Variant | effect of a mutation on the interaction
S70C | with no effect

Variants of: B8
Conditions: with ubql1_human UBQLN1, Q9UMX0
Chain of ubql1_human UBQLN1, Q9UMX0 (Q9UMX0 whole entry): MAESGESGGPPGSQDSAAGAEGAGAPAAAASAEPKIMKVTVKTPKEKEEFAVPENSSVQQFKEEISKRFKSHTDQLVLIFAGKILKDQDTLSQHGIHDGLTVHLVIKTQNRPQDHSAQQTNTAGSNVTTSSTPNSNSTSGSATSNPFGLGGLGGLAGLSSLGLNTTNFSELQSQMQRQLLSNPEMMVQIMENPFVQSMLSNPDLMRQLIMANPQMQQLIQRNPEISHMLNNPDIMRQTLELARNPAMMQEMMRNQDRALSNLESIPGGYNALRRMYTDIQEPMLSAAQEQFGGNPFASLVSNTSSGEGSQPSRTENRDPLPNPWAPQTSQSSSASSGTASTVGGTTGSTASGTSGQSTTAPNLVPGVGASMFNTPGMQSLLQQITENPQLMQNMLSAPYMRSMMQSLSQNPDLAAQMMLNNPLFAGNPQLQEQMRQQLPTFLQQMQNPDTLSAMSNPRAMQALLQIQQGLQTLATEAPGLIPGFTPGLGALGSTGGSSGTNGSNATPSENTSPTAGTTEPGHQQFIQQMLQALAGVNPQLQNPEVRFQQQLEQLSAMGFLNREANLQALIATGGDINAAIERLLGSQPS

Variant | effect of a mutation on the interaction
V184F | with no effect
F292L | with no effect

Variants of: B8
Conditions: with gucd1_human GUCD1, Q96NT3
Chain of gucd1_human GUCD1, Q96NT3 (Q96NT3 whole entry): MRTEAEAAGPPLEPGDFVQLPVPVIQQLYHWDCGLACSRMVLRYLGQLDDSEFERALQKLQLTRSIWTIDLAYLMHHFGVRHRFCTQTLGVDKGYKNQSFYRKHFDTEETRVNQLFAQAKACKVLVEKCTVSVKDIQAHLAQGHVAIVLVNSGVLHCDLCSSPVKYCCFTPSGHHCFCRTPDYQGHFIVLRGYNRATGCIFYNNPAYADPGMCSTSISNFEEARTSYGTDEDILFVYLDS

Variant | effect of a mutation on the interaction
V184F | with no effect

Variants of: B8
Conditions: with trad1_human TRAFD1, O14545
Chain of trad1_human TRAFD1, O14545 (O14545 whole entry): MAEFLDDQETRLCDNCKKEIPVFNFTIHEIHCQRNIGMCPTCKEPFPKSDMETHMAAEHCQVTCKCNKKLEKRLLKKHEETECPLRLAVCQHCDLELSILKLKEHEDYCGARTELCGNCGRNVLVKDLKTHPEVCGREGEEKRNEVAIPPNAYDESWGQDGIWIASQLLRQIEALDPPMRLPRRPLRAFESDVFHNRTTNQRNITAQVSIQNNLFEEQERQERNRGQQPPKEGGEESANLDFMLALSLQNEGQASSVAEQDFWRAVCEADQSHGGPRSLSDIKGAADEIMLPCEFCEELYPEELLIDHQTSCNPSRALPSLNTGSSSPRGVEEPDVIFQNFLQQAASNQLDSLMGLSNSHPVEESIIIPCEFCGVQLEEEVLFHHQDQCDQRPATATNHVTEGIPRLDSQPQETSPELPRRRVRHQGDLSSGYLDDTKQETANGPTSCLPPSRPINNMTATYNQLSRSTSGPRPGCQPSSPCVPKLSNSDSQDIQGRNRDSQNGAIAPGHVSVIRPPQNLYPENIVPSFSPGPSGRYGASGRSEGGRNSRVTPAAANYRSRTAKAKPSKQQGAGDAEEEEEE

Variant | effect of a mutation on the interaction
V184F | with no effect
F292L | with no effect

Source: IntAct's records for PubMed 31515488
